The numbers were not newly measured in article PMC5964610, which cites them from elsewhere.

pKd: −log10 of the molar value.

The target in this data set is FER (Arabidopsis thaliana) (UniProt Q9SCZ4).
UniProt Q9SCZ4, sequence (Q9SCZ4 28-447): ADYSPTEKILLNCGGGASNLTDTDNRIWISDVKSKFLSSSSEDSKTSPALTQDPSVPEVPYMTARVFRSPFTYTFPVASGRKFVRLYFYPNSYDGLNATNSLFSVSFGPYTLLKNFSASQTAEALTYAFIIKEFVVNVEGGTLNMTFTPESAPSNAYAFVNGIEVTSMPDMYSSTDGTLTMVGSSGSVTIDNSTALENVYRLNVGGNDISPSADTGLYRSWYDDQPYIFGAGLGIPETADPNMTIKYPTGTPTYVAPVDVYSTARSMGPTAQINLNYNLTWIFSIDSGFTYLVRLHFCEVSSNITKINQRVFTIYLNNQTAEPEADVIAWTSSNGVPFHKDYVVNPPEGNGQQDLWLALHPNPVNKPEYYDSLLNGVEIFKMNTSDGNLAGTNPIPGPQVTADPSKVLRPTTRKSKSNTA

Take RALF23 (from UniProt Q9LUS7): the negative-log Kd (pKd) was 6.51.

By pKd is commonly meant the negative decadic logarithm of the Kd, by convention in mol/L.
